In publication PMC7713382, “Structural analysis and insight into effector binding of the niacin-responsive repressor NiaR from Bacillus halodurans” (Scientific Reports, 2020):
Values belong to the molecule of their own block, whether it stands above or below them.

What was measured:
[1] = molecular target: niacin-responsive repressor NiaR from Bacillus halodurans (Bacillus halodurans); test: SEC-MALS; Superdex-200 10/300 GL, 20 mM Tris-HCl pH 8.0, 200 mM NaCl, 1 mM DTT; 10-12 mg/ml, 0.1 ml injected, 0.5 ml/min
BhNiaR [2] = molecular target: T1, BhNiaR (Halalkalibacterium halodurans, UniProt Q9KDJ7); test: X-ray crystal structure, co-crystallization, […] Å; type: binding; conditions: 2 mM niacin, 0.1 M Tris-HCl pH 8.5, 15% PEG 6000; Zn2+ in site; C-terminal 3H domain, carboxyl coordinates zinc and H-bonds His83, Tyr112 of second subunit in pocket
T1 construct: gene BH1216; full length, 179 residues; E. coli BL21(DE3) star pLysS, pET-28b(+); N-terminal His-tag removed with PreScission protease; residues 7-179 modelled
T1 sequence (Q9KDJ7 1-179): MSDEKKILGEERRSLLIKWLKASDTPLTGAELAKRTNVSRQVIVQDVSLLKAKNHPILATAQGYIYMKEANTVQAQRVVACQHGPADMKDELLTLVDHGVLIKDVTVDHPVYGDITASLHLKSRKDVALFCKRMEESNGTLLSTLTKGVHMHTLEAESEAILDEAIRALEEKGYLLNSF

BhNiaR [3] = molecular target: T2, BhNiaR (Bacillus halodurans, UniProt Q9KDJ7 1-179); test: EMSA; 1 mM niacin; Zn2+-bound protein; EMSA: 20 mM Tris pH 8.0, 100 mM KCl, 1 mM MgCl2, 1 mM DTT, 5% glycerol, +/- 1 mM niacin; 80 nM DNA, 0-3 µM protein; 30 min at room temperature (Methods) or 277; conditions: protein: recombinant; tags: N-terminal His-tag removed with PreScission protease; chain copies: 2; label: none (SYBR Green stain); blunt
T2 sequence: T1 sequence (Q9KDJ7 1-179)

stoichiometry N [1]: 2
Molecule: niacin-responsive repressor NiaR from Bacillus halodurans (natural protein)

Molecule: O=C(O)c1cccnc1 [niacin]
X-ray crystal structure, co-crystallization, 1.8 Å (BhNiaR [2]): A niacin molecule is bound to the C-terminal domain of BhNiaR near the metal-binding site.

B1: nifS-nadB promoter 34-bp cognate DNA (type I) (dsDNA)
DNA 1: CTCATTTACATATGTCTTGACATCTATATTTACA
DNA 2: TGTAAATATAGATGTCAAGACATATGTAAATGAG
Kd (BhNiaR [3]): ~500 nM
